Measurements published in publication PMC4428439.

B1: RssB, full-length, untagged, overexpressed in lysate [E. coli] / His6-IraP [E. coli] (parent)
chain 1: MTQPLVGKQILIVEDEQVFRSLLDSWFSSLGATTVLAADGVDALELLGGFTPDLMICDIAMPRMNGLKLLEHIRNRGDQTPVLVISATENMADIAKALRLGVEDVLLKPVKDLNRLREMVFACLYPSMFNSRVEEEERLFRDWDAMVDNPAAAAKLLQELQPPVQQVISHCRVNYRQLVAADKPGLVLDIAALSENDLAFYCLDVTRAGHNGVLAALLLRALFNGLLQEQLAHQNQRLPELGALLKQVNHLLRQANLPGQFPLLVGYYHRELKNLILVSAGLNATLNTGEHQVQISNGVPLGTLGNAYLNQLSQRCDAWQCQIWGTGGRLRLMLSAE
chain 2: MKNLIAELLFKLAQKEEESKELCAQVEALEIIVTAMLRNMAQNDQQRLIDQVEGALYEVKPDASIPDDDTELLRDYVKKLLKHPRQ

Variants of: B1
Experiment: pull-down
Details: with His6-IraP [E. coli]; lysate of cells co-expressing RssB and His6-IraP applied to Ni-NTA beads; eluted with imidazole; n = 3; parent: 1; read off a plot

Variant | ratio to parent
chain 1 D58P | 0.36
chain 1 D58A | 0.6
